From the supplement of paper PMC12042874
± gives the uncertainty stated by the source.

Test: amyloid nucleation score (Sup35N fusion, yeast selection) (log enrichment); library NNK1; higher = more nucleation; inactive = no reads after selection
In short: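 On medium lacking adenine and uracil, psi-negative yeast expressing peptides of 20 random codons fused to Sup35N were grown 7 days at 30°C after a 24-hour induction with 100 μM copper sulfate. Illumina sequencing of input and output plasmid inserts gave the reads, and sequences under 100 input reads were excluded. The nucleation score is the DiMSum log enrichment of output over input reads, centred on the mode score of non-aggregating sequences.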

| Substance | amyloid nucleation score |
| --- | --- |
| LKYPMGFPDRSL | -0.658 ± 1.1 |
| FSISKLFGLNADTVHTRHKK | 0.073 ± 0.38 |
| QKYPPRGNRFSLCRITVSCF | 0.22 ± 0.89 |
| SLKMEDFKKNSKMRMDFINH | 1.85 ± 0.19 |
| SEAMGMDNSQWSFALFMASM | 0.184 ± 0.48 |
| IRTCLVSIVATRCKVGVESP | 0.403 ± 0.34 |
| VHRFQ | 0.108 ± 0.61 |
| ISLRGRCITSKGSSYYAIKY | inactive |
| MIQRGLVGKDSTHVI | -0.175 ± 0.57 |
| GDSWRSYLRILGTYMVRRWC | 0.244 ± 0.54 |
| NYCYSFIKYPLEPVKFLSAV | -0.239 ± 1.1 |
| MWDGGKVNVFTFRAKRPCVG | -0.215 ± 1.7 |
| TEFSNAPPHTSAMVAYVLSY | -1.52 ± 1.7 |
| NNTFQIVLRFSGRHIDFNRR | 7.639 ± 0.064 |
| SSTGAVLIHNCTTRSVDLSG | 0.45 ± 0.69 |
| RLYLNDNTLSCF | -0.001 ± 0.22 |
| YNFRTVNFHIGTPSICFGHD | inactive |
| FEWRFPHQR | -0.025 ± 0.64 |
| RGFQTKSKGLARRSMYKCWE | -0.275 ± 0.31 |
| CYAPSGLLNLPNASFS | -1.26 ± 1.5 |
| NVILFNYLREILRLCYMACM | 0.758 ± 0.81 |
| ARWMVWTLESHLPDNFTMVN | -1.21 ± 1.1 |
| VLIFAKFYELPGDRRFGTGW | 3.87 ± 0.11 |

| Substance | amyloid nucleation score |
| --- | --- |
| CKVTSGDIQTYGVLGPQRPA | -1.05 ± 1.1 |
| SSRNSAAFLNHFDADRGLLP | 1.53 ± 0.14 |
| TSLNNGKSDFLYEARVLLEF | 0.541 ± 0.35 |
| CPVKGFLSVTACDYL | -0.384 ± 0.57 |
| FYMRSFLFDFQLFHVVGIWF | -0.929 ± 0.39 |
| YNCMEYSDARHKSSTVRLHY | -0.253 ± 0.62 |
| EWYLIYGGTRSGLIYRSYAR | 0.109 ± 0.38 |
| HVLHNWSDHDRN | 1.23 ± 0.55 |
| NHIDGVIGY | 0.083 ± 0.61 |
| ISLWLFVFCCHIISISKWLL | inactive |
| RCVMRAHFSTWLHKVSTSVW | 0.677 ± 0.54 |
| TNDEGPVRLNFNISR | -0.389 ± 0.26 |
| YLDFNHM | inactive |
| GCGMDGWDVQ | 0.103 ± 0.25 |
| LFFQANKLLVIYNCRIYTTF | 6.32 ± 0.07 |
| YYCYLLTNHPNTNGSVAFRL | 0.934 ± 0.44 |
| LCLDKQSSCGSMMSGIYDLM | -0.064 ± 0.28 |
| EGIHKR | 0.324 ± 0.66 |
| PIFAVTKVQVMRPH | -1.94 ± 2.7 |
| FRQPGYMCEIRVVGFGPKPL | -0.274 ± 0.9 |
| LMLRLRVLPVA | -0.234 ± 0.26 |
| CYPPEVF | 1.31 ± 0.67 |
| LLRVTEYLIIRPCSVFVINR | -0.459 ± 0.36 |

| Substance | amyloid nucleation score |
| --- | --- |
| VGYNNWTLVWGQGAMRVYSG | 0.033 ± 0.34 |
| GKSWFGYCVSLVCMSWVLSD | 0.67 ± 1.2 |
| YFDKKLGLS | inactive |
| RFVCQPNRWFHNKRGVGRET | 0.653 ± 0.64 |
| LNGWIVEGLNNADLTRRRWV | 0.235 ± 0.6 |
| RYEMSVHGV | 0.391 ± 0.66 |
| PCFSLLDSQRFVFGAKIILR | 0.093 ± 0.69 |
| FLPRSYCVFSWFHLSVSTAR | inactive |
| RQTLEKF | -0.168 ± 0.28 |
| IGYLDYLCCGISLFFQETEA | 0.427 ± 0.48 |
| RYDTNMFFSCCT | 5.591 ± 0.054 |
| NHEKGQRTVTMWLSLKDSMG | 3.02 ± 0.12 |
| VNWRGNSRVGIRNRFFCHSH | -0.28 ± 0.72 |
| GVFSSQDTRAIDLCSGVYVM | 0.003 ± 1.2 |
| SHLCLAMVVRGV | 0.507 ± 0.56 |
| TLPTKTTPSAFAVNEVTFLT | -0.573 ± 0.4 |
| YMLLTLGLTTLVCNSHRLVL | 0.026 ± 0.55 |
| LFNKNGYNSETRFLFKLGFD | 1.02 ± 0.56 |
| VSILSRI | -0.842 ± 0.61 |
| EIVVIASRTASPDFIN | 1.01 ± 0.74 |
| CPSEYQIAGMIASSYMHLGE | 0.872 ± 0.33 |
| KMLNISGDTMWYVILVLRYV | -0.292 ± 0.56 |
| LLAMFKFDNPHILFCSSILL | 5.62 ± 0.078 |
